Data taken from PMC5833442, “Cooperation between Hsp90 and mortalin/GRP75 in resistance to cell death induced by complement C5b-9” (Cell Death & Disease, 2018).

Target: T1, recombinant human Hsp90β (human, UniProt P08238 1-724)
T1 construct: Heat shock protein 90 beta (Hsp90β, constitutively expressed form, gene HSP90AB1), human, recombinant; Commercial protein; also called heat shock protein 90; purified Hsp90; source: bought: StressMarq (recombinant)
Assay: co-sedimentation; Hsp90β mixed with C9 or BSA (1 µg each) in TBS, 1 h at 37 °C; sucrose density gradient (1–20% by text and methods, 10–30% by legend), 18 h ultracentrifugation, 4 °C; fractions dot blotted with anti-Hsp90β or anti-C9
Conditions: both partners purified

T1 sequence (P08238 whole entry): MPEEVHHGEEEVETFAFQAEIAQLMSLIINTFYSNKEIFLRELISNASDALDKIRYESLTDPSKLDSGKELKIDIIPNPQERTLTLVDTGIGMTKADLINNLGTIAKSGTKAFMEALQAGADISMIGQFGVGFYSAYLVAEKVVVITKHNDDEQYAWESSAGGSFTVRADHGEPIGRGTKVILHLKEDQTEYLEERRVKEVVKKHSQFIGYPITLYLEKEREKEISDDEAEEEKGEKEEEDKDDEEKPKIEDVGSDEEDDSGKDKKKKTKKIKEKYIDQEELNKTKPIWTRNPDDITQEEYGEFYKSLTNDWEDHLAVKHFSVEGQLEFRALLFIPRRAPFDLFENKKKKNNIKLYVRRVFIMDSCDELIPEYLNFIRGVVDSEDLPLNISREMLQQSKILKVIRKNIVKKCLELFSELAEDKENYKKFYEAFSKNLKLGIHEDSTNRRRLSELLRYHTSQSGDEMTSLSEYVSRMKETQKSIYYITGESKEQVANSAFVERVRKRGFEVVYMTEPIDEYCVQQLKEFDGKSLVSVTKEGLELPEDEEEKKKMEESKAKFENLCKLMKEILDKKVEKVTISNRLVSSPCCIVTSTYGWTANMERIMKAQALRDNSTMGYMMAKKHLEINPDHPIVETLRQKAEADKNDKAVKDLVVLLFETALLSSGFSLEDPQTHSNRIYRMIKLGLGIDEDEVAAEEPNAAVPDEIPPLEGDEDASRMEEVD

B1: purified human C9 (natural protein)
chain: not shown
notes: Complement component C9, human, purified; also called complement C9; complement protein C9; source: bought: Complement Technology Inc. (purified human C9)
  binding result: binds
